Data as given in publication PMC8199036, “Improved Tumor-Targeting with Peptidomimetic Analogs of Minigastrin ^177Lu-PP-F11N” (Cancers, 2021).
Where “and” joins values, the source holds several entries; their conditions need not be identical. Equal entries are not always repeated. Where two headings read alike, the source gives them in different places.

Tests used:
[1] = biodistribution in mice with CCK2R-positive xenografts; format: in vivo, female CD1-nu mice; settings: female, CD1-nu, mouse, in vivo, total radioactivity; for tissue uptake at 1 h: 1 h p.i.; for tissue uptake at 24 h: 24 h p.i.
Procedure: (§1) Procedures for biodistribution studies with ^177Lu-labeled conjugates (10 pmol, 100 µL, 0.1 µM in PBS, 0.5 MBq, 1 µg/kg) in female CD1-nu mice with xenografts of A431-CCK2R cells at 1, 4, and 24 h p.i., as well as blocking experiments at 4 h p.i. with a 6000-fold excess of minigastrin have been reported previously and were followed without modifications. Statistical analysis was performed via GraphPad Prism using two-sided analysis of variance. n = 4 animals per group.

[2] = tested on: xenografts of A431-CCK2R cells; experiment: as above; format: in vivo, female CD1-nu mice
Procedure: as §1

[3] = set-up: method as in PMID 30608664; settings: 177Lu-labeled; 24 h incubation, human blood plasma; reported previously; cited from earlier work
[4] = set-up: method as in PMID 30608664; settings: 177Lu-labeled; mouse blood, 10 min p.i.; reported previously; cited from earlier work
[5] = 10 pmol, read-out: Heart uptake
[6] = 10 pmol, read-out: Intestines uptake
[7] = 10 pmol, read-out: Kidneys uptake
[8] = 10 pmol, read-out: Liver uptake
[9] = 10 pmol, read-out: Pancreas uptake
[10] = 10 pmol, read-out: Spleen uptake
[11] = 10 pmol, read-out: Stomach (CCK2R-positive) uptake
[12] = 10 pmol, read-out: Tumor (CCK2R-positive) uptake

CCCC[C@H](NC(=O)[C@H](Cc1c[nH]c2ccccc12)NC(=O)CNC(=O)[C@H](Cc1ccc(O)cc1)NC(=O)[C@H](C)NC(=O)[C@@H](CCC(=O)O)NC(=O)[C@@H](CCC(=O)O)NC(=O)[C@@H](CCC(=O)O)NC(=O)[C@@H](CCC(=O)O)NC(=O)[C@@H](CCC(=O)O)NC(=O)[C@@H](CCC(=O)O)NC(=O)CN1CCN(CC(=O)O)CCN(CC(=O)O)CCN(CC(=O)O)CC1)C(=O)N[C@@H](CC(=O)O)C(=O)N[C@@H](Cc1ccccc1)C(N)=O [PP-F11N, DOTA-(DGlu)6-Ala-Tyr-Gly-Trp-Nle-Asp-Phe-NH2]
tissue uptake at 1 h ([1]; 10 pmol, read-out: Bone uptake): 0.88 %ID/g
tissue uptake at 1 h [1, 5]: 0.08 %ID/g
tissue uptake at 1 h [1, 6]: 0.12 %ID/g
tissue uptake at 1 h [1, 7]: 2.75 %ID/g
tissue uptake at 1 h [1, 8]: 0.09 %ID/g
tissue uptake at 1 h ([1]; 10 pmol, read-out: Lung uptake): 0.16 %ID/g
tissue uptake at 1 h ([1]; 10 pmol, read-out: Muscle uptake): 0.13 %ID/g
tissue uptake at 1 h [1, 9]: 0.18 %ID/g
tissue uptake at 1 h [1, 10]: 0.06 %ID/g
tissue uptake at 1 h [1, 11]: 1.02 %ID/g
tissue uptake at 1 h [1, 12]: 6.92 %ID/g
tissue uptake at 4 h ([1]; 10 pmol, 4 h (blocked), excess minigastrin, read-out: Bone uptake): 0.15 %ID/g
tissue uptake at 4 h ([1]; 10 pmol, 4 h (blocked), excess minigastrin, read-out: Muscle uptake): 0.01 %ID/g
tissue uptake at 4 h ([1]; 10 pmol, 4 h p.i., read-out: Blood uptake): 0.01 %ID/g
tissue uptake at 4 h ([1]; 10 pmol, 4 h p.i., read-out: Bone uptake): 0.22 %ID/g
tissue uptake at 4 h ([1]; 10 pmol, 4 h p.i., read-out: Heart uptake): 0.03 %ID/g
tissue uptake at 4 h ([1]; 10 pmol, 4 h p.i., read-out: Intestines uptake): 0.05 %ID/g
tissue uptake at 4 h ([1]; 10 pmol, 4 h p.i., read-out: Kidneys uptake): 2.42 %ID/g
tissue uptake at 4 h ([1]; 10 pmol, 4 h p.i., read-out: Liver uptake): 0.06 %ID/g
tissue uptake at 4 h ([1]; 10 pmol, 4 h p.i., read-out: Lung uptake): 0.03 %ID/g
tissue uptake at 4 h ([1]; 10 pmol, 4 h p.i., read-out: Muscle uptake): 0.02 %ID/g
tissue uptake at 4 h ([1]; 10 pmol, 4 h p.i., read-out: Pancreas uptake): 0.09 %ID/g
tissue uptake at 4 h ([1]; 10 pmol, 4 h p.i., read-out: Spleen uptake): 0.03 %ID/g
tissue uptake at 4 h ([1]; 10 pmol, 4 h p.i., read-out: Stomach (CCK2R-positive) uptake): 1.04 %ID/g
tissue uptake at 4 h ([1]; 10 pmol, 4 h p.i., read-out: Tumor (CCK2R-positive) uptake): 4.07 %ID/g
tissue uptake at 24 h ([1]; 10 pmol, read-out: Bone uptake): 0.1 %ID/g
tissue uptake at 24 h [1, 5]: 0.01 %ID/g
tissue uptake at 24 h [1, 6]: 0.03 %ID/g
tissue uptake at 24 h [1, 7]: 1.72 %ID/g
tissue uptake at 24 h [1, 8]: 0.04 %ID/g
tissue uptake at 24 h ([1]; 10 pmol, read-out: Lung uptake): 0.02 %ID/g
tissue uptake at 24 h [1, 9]: 0.08 %ID/g
tissue uptake at 24 h [1, 10]: 0.02 %ID/g
tissue uptake at 24 h [1, 11]: 0.67 %ID/g
tissue uptake at 24 h [1, 12]: 2.73 %ID/g
tissue uptake at 4 h ([1]; 4 h (blocked), excess minigastrin, read-out: Blood uptake): 0.01 %ID/g
tissue uptake at 4 h ([1]; 4 h (blocked), excess minigastrin, read-out: Heart uptake): 0.02 %ID/g
tissue uptake at 4 h ([1]; 4 h (blocked), excess minigastrin, read-out: Intestines uptake): 0.03 %ID/g
tissue uptake at 4 h ([1]; 4 h (blocked), excess minigastrin, read-out: Kidneys uptake): 2.57 %ID/g
tissue uptake at 4 h ([1]; 4 h (blocked), excess minigastrin, read-out: Liver uptake): 0.07 %ID/g
tissue uptake at 4 h ([1]; 4 h (blocked), excess minigastrin, read-out: Lung uptake): 0.04 %ID/g
tissue uptake at 4 h ([1]; 4 h (blocked), excess minigastrin, read-out: Pancreas uptake): 0.04 %ID/g
tissue uptake at 4 h ([1]; 4 h (blocked), excess minigastrin, read-out: Spleen uptake): 0.04 %ID/g
tissue uptake at 4 h ([1]; 4 h (blocked), excess minigastrin, read-out: Stomach (CCK2R-positive) uptake): 0.12 %ID/g
tissue uptake at 4 h ([1]; 4 h (blocked), excess minigastrin, read-out: Tumor (CCK2R-positive) uptake): 1.3 %ID/g
Tumor (CCK2R-positive) uptake ([2]; 1 h p.i.): 6.92 ± 2.21 % i.A./g
Tumor (CCK2R-positive) uptake ([2]; 4 h p.i.): 4.07 ± 1.40 % i.A./g
Tumor (CCK2R-positive) uptake ([2]; 24 h p.i.): 2.73 ± 0.84 % i.A./g and 2.7 ± 0.8 % i.A./g
Intact Compound In Vitro (%), 24 h, Blood Plasma [3]: 98.1 ± 0.9%
Intact Compound In Vivo (%), 10 min [4]: 43% and 43.1 ± 2.7%
